# Laboratory results reported in PMC5716193.
# Experiments:
# [1] = target: Opbp[1–174] fragment after deletion of TRX (Drosophila); experiment: cross-linking
# [2] = target: Thioredoxin-tagged Opbp[114–174] (Drosophila); experiment: cross-linking
stoichiometry N [1],stoichiometry N [2],Substance
2,,Opbp[1–174] fragment after deletion of TRX (domain or fragment)
,2,Thioredoxin-tagged Opbp[114–174] (domain or fragment)
